The text below walks through data of patent US20100092461A1, “Remedy For Chemotherapy-Resistant Cancer Containing HLA Class I-Recognizing Antibody as the Active Ingredient and Use of the Same” (CHUGAI SEIYAKU KABUSHIKI KAISHA, priority 2007, published 2010).

One series has as its system parent cell lines. Description: Daunorubicin uptake into cells (accumulation and efflux phase, flow cytometry), parent cell lines. Format: cell-based. To be noted: FIG. 8. How it is done:
(§1) To elucidate the mechanism of overcoming drug (chemotherapeutic agent)-resistance using C3B3-DB, MDR1 expression on the cell surface was examined after treating these cells for six hours with C3B3-DB (0.1 μg/mL). […] Furthermore, treatment of these cells with C3B3-DB was followed by culturing these cells in the presence of daunorubicin (0.1 μg/mL, Meiji Seika, Tokyo) and the amount of daunorubicin uptake into cells were compared.
(§2) Specifically, uptake of the pharmaceutical agent into the cells (accumulation phase) was evaluated by culturing the cells for two hours in the presence or absence of C3B3-DB, then adding daunorubicin and culturing the cells for 30 minutes, washing the cells, and then measuring the PE intensity by flow cytometry. The cells were cultured for another 30 minutes to evaluate persistence of the pharmaceutical agent in the cells (efflux phase) in a same manner using flow cytometry.
A general note: In flow cytometry, cells or beads pass a laser one at a time.

In series [1] the test system is vincristine-resistant cell lines. Description: Daunorubicin uptake into cells (accumulation and efflux phase, flow cytometry), vincristine-resistant cell lines. Format: cell-based. As to conditions: FIG. 8. How it is done:
as §1, §2

The next series relates to BLTH. Briefly: Cytotoxic activity, cell growth test using WST-8, BLTH. Format: cell-based. As to conditions: FIG. 6. How it is done:
(§3) Acute myeloid leukemia cell line HL60 (American Type Culture Collection, Manassas, Va., USA) and Burkitt's lymphoma cell line BLTH (kindly gifted from Prof Hirose at The University of Tokushima, Br. J. Cancer (1987) 56: 413-417) were cultured in the presence of vincristine to obtain vincristine-resistant cell lines HL60-R and BLTH-R.
(§4) First, these tumor cells were used to examine their susceptibility to C3B3-DB. These tumor cells were cultured in the presence of various concentrations of C3B3-DB and then antitumor activity (cytotoxic activity) of C3B3-DB was measured by cell growth tests using WST-8 (Kishida Chemicals, Osaka).
(§5) In addition, whether or not drug resistance in chemotherapeutic agent-resistant tumor cells can be overcome (improved) was examined by culturing these cells in the presence or absence of C3B3-DB (0.1 μg/mL) for six hours and then adding vincristine.
On the technique in general: Tetrazolium assays rely on reduction of a dye to a coloured formazan, in cell work by metabolically active cells.

In another series the test system is HL60. Briefly: Cytotoxic activity, cell growth test using WST-8, HL60. As to conditions: FIG. 6. Format: cell-based. How it is done:
as §3, §4, §5

Series [2] concerns multiple myeloma model mice generated by transplanting human myeloma cell line. As to conditions: cited from earlier work.
Another series has as its system HL60-R. Briefly: Cytotoxic activity, cell growth test using WST-8, HL60-R. It is filed as cell-based. How it is done:
as §3, §4, §5

The next series concerns BLTH-R. Description: Cytotoxic activity, cell growth test using WST-8, BLTH-R. It is filed as cell-based. How it is done: as §3, §4, §5
The next series deals with activated lymphocytes. As to conditions: cited from earlier work.
The next series relates to MDR1. Briefly: MDR1 expression on the cell surface after C3B3-DB treatment (flow cytometry). Format: cell-based. As to conditions: six hours with C3B3-DB 0.1 μg/mL, chemotherapeutic agent-resistant cell lines, FIG. 7.
Text: MDR1 expression on the cell surface was examined by flow cytometry using anti-MDR1 antibody (UIC-2, Chemicon, Temecula, Calif., USA) and FITC-labeled goat anti-mouse IgG antibody (Biosource, Camarillo, Calif., USA). Mouse IgG (BD Biosciences, San Jose, Calif., USA) was used for the control antibody.
as §1

For series [3] the following is noted: used alone, compared with 2D7 diabody used alone, Patent Document 5; cited from earlier work.
A further series has as its system human myeloma cells. To be noted: various human myeloma cell lines; cited from earlier work.
Where [4] appears, read: C3B3-DB two hours then daunorubicin.

Regarding `COc1cccc2c1C(=O)c1c(O)c3c(c(O)c1C2=O)C[C@@](O)(C(C)=O)C[C@@H]3O[C@H]1C[C@H](N)[C@H](O)[C@H](C)O1` [daunorubicin, reference compound], the “amount of daunorubicin uptake into cells” value with parent cell lines (daunorubicin 0.1 μg/mL, accumulation and efflux phase) is “a certain amount of daunorubicin was taken up”; in series [1] (daunorubicin 0.1 μg/mL, both phases), “significantly decreased”.
Consider `CC[C@]1(O)C[C@H]2CN(CCc3c([nH]c4ccccc34)[C@@](C(=O)OC)(c3cc4c(cc3OC)N(C=O)[C@H]3[C@@](O)(C(=O)OC)[C@H](OC(C)=O)[C@]5(CC)C=CCN6CC[C@]43[C@@H]65)C2)C1` [vincristine, reference compound], for which the “cell injury by vincristine” value with BLTH (with or without C3B3-DB pre-treatment) is recorded as “concentration-dependent cell injury”; in the series on HL60 (HL60, with or without C3B3-DB pre-treatment), “concentration-dependent cell injury”.

B1: C3B3-DB: C3B3 diabody, a low-molecular-weight antibody of the C3B3 antibody recognizing HLA class I (protein)
scFv: EVKLVESEGGLVQPGSSMKLSCTASGFTFSDHYMAWVRQVPEKGLEWVADINYDGSRTYYLDSLKSRFIISRDNGKNILYLQMSSLKSEDTATYYCARDRVRSSYYSNLFAMDYWGQGISVTVSSGGGGSDIQMTQTTSSLSASLGDRVTISCRASQDIANYLNWYQQKPDGTVKLLIYYTSRLHSGVPSRFSGSGSGTDYSLTISNLEPEDIATYYCQQYSKLPYTFGSGTKLEIK
modifications: left off: small tags and cut ends
Regarding B1, the “cytotoxic activity enhancement of vincristine due to pre-treatment” value in the series on BLTH (C3B3-DB 0.1 μg/mL for six hours then vincristine) is on record as “not observed”; in the series on HL60 (HL60, C3B3-DB 0.1 μg/mL for six hours then vincristine), “not observed”; in the series with HL60-R (HL60-R, C3B3-DB 0.1 μg/mL for six hours then vincristine, FIG. 6), “enhanced”; in the series on BLTH-R (BLTH-R, C3B3-DB 0.1 μg/mL for six hours then vincristine, FIG. 6), “enhanced”. The survival benefit result in series [2] is on record as “significant survival benefit”. For the same molecule, the “cytotoxic activity (survival rate of the cells)” value with HL60-R (C3B3-DB alone, 24 hours, HL60-R compared with parent HL60, FIG. 5) is “cell injury was induced at lower concentrations”; in the series on BLTH-R (C3B3-DB alone, 24 hours, BLTH-R compared with parent BLTH, FIG. 5), “cell injury was induced at lower concentrations”. For the same molecule, the cell death-inducing activity entry in the series on activated lymphocytes and with human myeloma cells was “strong cell death-inducing activity” in each case. The “MDR1 expression on the cell surface” value in the series with MDR1 is given as “decrease in some cells”. Also, in [3], the antitumor effects entry is “stronger antitumor effects than 2D7 diabody”. Besides, the results for the “pre-treatment effect on amount of daunorubicin uptake” value (in the series on parent cell lines (setting [4]); in [1] (setting [4])) were “not observed” and “increased the amount of uptake”, respectively.
